Measurements published in patent publication EP4667491A1.

Molecular target: human CNTN4 expressed on the cell surface (human) (UniProt Q8IWV2)
Test: flow cytometry; IgG on human CNTN4-overexpressing HEK293 cells

Sequence of human CNTN4 expressed on the cell surface (human) (Q8IWV2 19-1000): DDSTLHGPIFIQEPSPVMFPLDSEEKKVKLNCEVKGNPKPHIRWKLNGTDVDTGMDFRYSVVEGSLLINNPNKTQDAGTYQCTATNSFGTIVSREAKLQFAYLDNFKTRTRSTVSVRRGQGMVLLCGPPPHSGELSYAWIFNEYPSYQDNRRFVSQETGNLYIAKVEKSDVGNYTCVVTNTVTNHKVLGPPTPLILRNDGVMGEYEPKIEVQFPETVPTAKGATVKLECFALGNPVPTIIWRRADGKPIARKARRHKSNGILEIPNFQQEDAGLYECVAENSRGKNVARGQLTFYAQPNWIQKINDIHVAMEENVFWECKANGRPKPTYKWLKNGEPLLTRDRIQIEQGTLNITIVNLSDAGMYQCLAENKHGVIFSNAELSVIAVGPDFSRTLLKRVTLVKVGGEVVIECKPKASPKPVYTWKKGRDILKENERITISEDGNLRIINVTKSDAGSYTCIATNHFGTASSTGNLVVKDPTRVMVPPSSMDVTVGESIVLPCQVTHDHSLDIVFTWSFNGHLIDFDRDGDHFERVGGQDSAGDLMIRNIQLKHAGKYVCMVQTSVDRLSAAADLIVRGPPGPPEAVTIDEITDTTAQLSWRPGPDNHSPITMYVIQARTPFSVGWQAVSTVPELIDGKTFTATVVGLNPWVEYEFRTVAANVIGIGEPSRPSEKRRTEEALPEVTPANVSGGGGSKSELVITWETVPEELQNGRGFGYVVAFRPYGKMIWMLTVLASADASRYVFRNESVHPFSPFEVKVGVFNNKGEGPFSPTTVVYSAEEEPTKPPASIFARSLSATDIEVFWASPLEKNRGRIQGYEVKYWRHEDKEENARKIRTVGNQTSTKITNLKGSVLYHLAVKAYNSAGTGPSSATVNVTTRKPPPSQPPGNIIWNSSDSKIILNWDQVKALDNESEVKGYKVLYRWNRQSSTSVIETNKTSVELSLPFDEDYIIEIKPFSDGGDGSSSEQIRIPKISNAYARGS

Top MFI: 13 MFI
Substance: human IgG4 antibody (negative control)
